The target in this test is CXCL12 (UniProt P48061-2 22-89). The experiment in a line: MST.

This note sets out measurements from article doi:10.1101/563890 (bioRxiv, 2019).

CXCL12, sequence (P48061 22-89): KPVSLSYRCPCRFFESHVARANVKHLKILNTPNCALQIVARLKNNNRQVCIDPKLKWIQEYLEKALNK

B1: 6His-tagged full-length HMGB1 (residues 1-214), labelled with NT647 (natural protein, UniProt P63159 1-215, looked up)
chain: MGKGDPKKPRGKMSSYAFFVQTCREEHKKKHPDASVNFSEFSKKCSERWKTMSAKEKGKFEDMAKADKARYEREMKTYIPPKGETKKKFKDPNAPKRPPSAFFLFCSEYRPKIKGEHPGLSIGDVAKKLGEMWNNTAADDKQPYEKKAAKLKEKYEKDIAAYRAKGKPDAAKKGVVKAEKSKKKKEEEDDEEDEEDEEEEEEEEDEDEEEDDDDE
modifications: non-covalently labelled with the NT647 fluorescence dye
What is called Kd is the equilibrium constant for the complex coming apart. High values mean a looser complex, low ones a tighter complex. In the case of B1, the Kd was 4 ± 0.4 µM.
